In the series the test system is ATP. Kind of series: switch fluorescence ratio, 500 uM ATP over buffer (Cy3 cluster intensity, sum of 5 cycles each) (fold (ratio)); higher = stronger signal-on switching upon ATP binding; sequences stand for … in TCGTCGGCAGCGTCAGATGTGTATAAGAGACAGTTTTTTTTTTTTTTTTTTTTTTTTT…TC. Conditions: aptamer strand: ATP DNA aptamer (quencher-CACCTGGGGGAGTATTGCGGAGGAAGG + anchor), 100 nM annealed; ATP concentration: 500 uM. An outline of the steps:
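Cy3-labelled switching-strand clusters on a modified Illumina MiSeq flow-cell were annealed to 100 nM quencher-labelled ATP aptamer, imaged in selection buffer, then imaged after 15 min with 500 uM ATP at 22 °C. Five buffer/ATP cycles ran, with NaOH stripping and re-annealing between them. The fluorescence ratio is summed target-cycle over summed buffer-cycle Cy3 intensity per cluster, averaged per switch-domain sequence. Clusters outside 100-1000 RFU were excluded.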

± gives the standard deviation of the averaged measurements.
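Note: ATP exposure 15 min at 22 °C before imaging.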

For the sequence GGACACTCTG, the switch fluorescence ratio was 0.977 ± 0.013.

Turning to TTTGCCGCCC, the switch fluorescence ratio was found to be 1.145 ± 0.0012.

Regarding TGATTTGGTT, the switch fluorescence ratio was found to be 0.9903 ± 0.0083.

Consider AGGGCGCGTG, for which the switch fluorescence ratio amounted to 0.995 ± 0.05.

AAGGTTTCAG: the switch fluorescence ratio worked out at 0.9758 ± 0.0079.

Take AAGATACCTG: the switch fluorescence ratio was 1.08 ± 0.043.

As to ATTGTGGGGC, the switch fluorescence ratio came out at 1 ± 0.022.

In the case of TGTGTTCCTC, the switch fluorescence ratio stood at 1.08 ± 0.013.

As for GTGGGGTCCG, the switch fluorescence ratio is 0.99 ± 0.046.

As for GAAACGGGGG, the switch fluorescence ratio turned out to be 1.013 ± 0.009.

For the sequence TTCGTGTATC, the switch fluorescence ratio turned out to be 0.999 ± 0.011.

In the case of TCTGGATTGT, the switch fluorescence ratio worked out at 0.97294 ± 3.9e-05.

On to TAAAGGGCGT, for which the switch fluorescence ratio amounted to 0.967 ± 0.021.

ATTGACGTAC: the switch fluorescence ratio came out at 1.76 ± 0.083.

Turning to AAGCGGTTAA, the switch fluorescence ratio amounted to 1.011 ± 0.0022.

As to AGGATTAACA, the switch fluorescence ratio was 1.05 ± 0.013.

Consider GGGCAAGGAT, for which the switch fluorescence ratio came out at 1.015 ± 0.0028.

On to CGAAGCTCTG, for which the switch fluorescence ratio turned out to be 1.09 ± 0.013.

CGGCAGGCAC: the switch fluorescence ratio was found to be 1.21 ± 0.037.

For TAGTTGCGGC, the switch fluorescence ratio turned out to be 1.01 ± 0.041.

As to TATTAGTTAA, the switch fluorescence ratio stood at 0.992 ± 0.019.

Turning to TGCGTGAAGT, the switch fluorescence ratio is 1.041 ± 0.0091.

Consider CGGGGGGCGG, for which the switch fluorescence ratio was 0.986 ± 0.032.

As for GAACCTAGAG, the switch fluorescence ratio came out at 0.98 ± 0.056.

For the sequence TTCTAAGGAG, the switch fluorescence ratio amounted to 1.017 ± 0.0022.

Take GTGTTTATAG: the switch fluorescence ratio is 0.993 ± 0.018.

GGGATGATAG: the switch fluorescence ratio is 0.959 ± 0.032.

In the case of AGAGCGTTGT, the switch fluorescence ratio turned out to be 0.977 ± 0.023.

Take ATAAGAAATA: the switch fluorescence ratio came to 0.996 ± 0.027.

Consider TCGTATAAGG, for which the switch fluorescence ratio came out at 0.982 ± 0.037.

On to TTGGGGTAGA, for which the switch fluorescence ratio was determined as 1.05 ± 0.031.

In the case of TTTGGCTGAA, the switch fluorescence ratio is 1.01 ± 0.019.

On to CGGGAGTGCG, for which the switch fluorescence ratio is 1.02 ± 0.024.

As for GTCACAGTTG, the switch fluorescence ratio was 1.015 ± 0.0045.

On to GGAGGGGGAT, for which the switch fluorescence ratio came out at 1.03 ± 0.043.

Turning to CGTTTCGCAG, the switch fluorescence ratio was 1.03 ± 0.068.

Consider CGATTTGGGG, for which the switch fluorescence ratio stood at 0.968 ± 0.017.

Turning to ACGGGGGTCC, the switch fluorescence ratio amounted to 1.02 ± 0.025.

AAGGGGAAGG: the switch fluorescence ratio was 0.996 ± 0.012.

As to GGGTTTTGCT, the switch fluorescence ratio came to 0.955 ± 0.028.

As to GCTCTTATTA, the switch fluorescence ratio is 0.977 ± 0.021.

With GTGAAATTGT, the switch fluorescence ratio was found to be 1.01 ± 0.034.

For TTTTGTTGCG, the switch fluorescence ratio was 1.03 ± 0.043.

Regarding AAAGGTATGG, the switch fluorescence ratio is 0.961 ± 0.018.

As for TAAATTAGTT, the switch fluorescence ratio stood at 1.01 ± 0.017.

In the case of AGGTGCTTGA, the switch fluorescence ratio is 0.975 ± 0.078.

Consider GTTTGTTATC, for which the switch fluorescence ratio amounted to 0.98 ± 0.0057.

With AACGTAAATT, the switch fluorescence ratio worked out at 1.33 ± 0.31.

As for TAATCTAGGG, the switch fluorescence ratio stood at 0.985 ± 0.046.

GGGAAGTTCA: the switch fluorescence ratio turned out to be 1 ± 0.029.

AAAGAGGCAA: the switch fluorescence ratio is 1.03 ± 0.047.

In the case of TAGTAGCTGT, the switch fluorescence ratio stood at 1.04 ± 0.089.

Consider GTTTGGCCGT, for which the switch fluorescence ratio is 0.97 ± 0.035.

Turning to GAATTATCTA, the switch fluorescence ratio was determined as 0.996 ± 0.022.

As to GTCTAAGGAA, the switch fluorescence ratio is 0.993 ± 0.016.

Consider CAGGAACCGA, for which the switch fluorescence ratio came out at 1.14 ± 0.017.

Regarding CAAGAAAGTT, the switch fluorescence ratio amounted to 0.964 ± 0.034.

With TTAGTGGGAG, the switch fluorescence ratio came out at 0.966 ± 0.033.

In the case of TGGGTCCATA, the switch fluorescence ratio was found to be 0.95611 ± 0.00081.

ATTATTGGGC: the switch fluorescence ratio worked out at 0.981 ± 0.035.

For TTGGGTAGGA, the switch fluorescence ratio amounted to 1.03 ± 0.04.

For TGTGTGTGTG, the switch fluorescence ratio stood at 0.974 ± 0.017.

GTTGATCCGA: the switch fluorescence ratio stood at 0.971 ± 0.013.

On to GGGGAATAAG, for which the switch fluorescence ratio was determined as 1.01 ± 0.053.

On to TTCAGAATTG, for which the switch fluorescence ratio amounted to 1.0012 ± 0.00092.

In the case of GCTAGGGCGT, the switch fluorescence ratio came to 0.972 ± 0.051.

For ACAGGTTGCG, the switch fluorescence ratio is 0.9971 ± 0.0082.

Consider CAGGGTTTGG, for which the switch fluorescence ratio was 1.01 ± 0.023.

For CATCCCTCAA, the switch fluorescence ratio amounted to 1.86 ± 0.72.

For the sequence AATGGTTCGC, the switch fluorescence ratio worked out at 1.009 ± 0.0069.

In the case of TTGTGCGAGA, the switch fluorescence ratio stood at 0.989 ± 0.013.

Consider AAAAGGTTTT, for which the switch fluorescence ratio worked out at 1 ± 0.033.

For GGGTGTACCT, the switch fluorescence ratio turned out to be 1.039 ± 0.0043.

AGTTAGTTTG: the switch fluorescence ratio was 0.961 ± 0.022.

On to ACGCGGAGAC, for which the switch fluorescence ratio came out at 1.24 ± 0.024.

For GCGGGTCATG, the switch fluorescence ratio came out at 0.981 ± 0.021.

As to TCTTCGACCG, the switch fluorescence ratio is 1.31 ± 0.28.

For the sequence AATTGGAATA, the switch fluorescence ratio is 0.956 ± 0.038.

The values above are taken from the supplement of paper PMC10126150.
